For experiment [1], the target named is T1, ASTN1 peptide on HLA-A*02:01 (human).
T1 peptide: KLYGLDWAEL
The experiment is described as follows: cytokine release.

In experiment [2] the target is T2, MAGE-A4 peptide on HLA-A*02:01 (human).
T2 peptide: GVYDGREHTV
The experiment is described as follows: multimer staining.

B1: TCR-2 (TCR, V domains shown)
Valpha: AQKITQTQPGMFVQEKEAVTLDCTYDTSDPSYGLFWYKQPSSGEMIFLIYQGSYDQQNATEGRYSLNFQKARKSANLVISASQLGDSAMYFCAMSGGYTGGFKTIFGAGTRLFVKA
Vbeta: DSGVTQTPKHLITATGQRVTLRCSPRSGDLSVYWYQQSLDQGLQFLIQYYNGEERAKGNILERFSAQQFPDLHSELNLSSLELGDSALYFCASSGGDGDEQFFGPGTRLTVL
Take B1: in experiment [1], the binding result is recorded as “no recognition”.

B2: TCR-3 (TCR, V domains shown)
Valpha: GENVEQHPSTLSVQEGDSAVIKCTYSDSASNYFPWYKQELGKRPQLIIDIRSNVGEKKDQRIAVTLNKTAKHFSLHITETQPEDSAVYFCAASRGTGFQKLVFGTGTRLLVSP
Vbeta: DTAVSQTPKYLVTQMGNDKSIKCEQNLGHDTMYWYKQDSKKFLKIMFSYNNKELIINETVPNRFSPKSPDKAHLNLHINSLELGDSAVYFCASSQFWDGAGDEQYFGPGTRLTVT
Consider B2, for which the binding result in experiment [1] was “no recognition”; in experiment [2] it was “recognises”.

B3: TCR-1 (TCR, V domains shown)
Valpha: AQKITQTQPGMFVQEKEAVTLDCTYDTSDQSYGLFWYKQPSSGEMIFLIYQGSYDEQNATEGRYSLNFQKARKSANLVISASQLGDSAMYFCAMSGDSAGNMLTFGGGTRLMVKP
Vbeta: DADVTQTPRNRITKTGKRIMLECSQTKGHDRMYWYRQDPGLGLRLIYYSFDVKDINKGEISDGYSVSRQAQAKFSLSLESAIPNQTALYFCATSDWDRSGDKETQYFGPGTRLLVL
With B3, the binding result in experiment [1] is “no recognition”; in experiment [2], “recognises”.

Source of the values: patent US20230159612A1 (published 2023).
